B1: MTSP-1 Q38H/I41S/D60bV/F60eQ/Y60gF/ins97aE/F97T/T98G/F99L/C122S/Q175L/Q192I (enzyme)
chain: VVGGTDADEGEWPWQVSLHALGHGHSCGASLISPNWLVSAAHCYIDVRGQRFSDPTQWTAFLGLHDQSQRSAPGVQERRLKRIISHPFFNDTEGLDYDIALLELEKPAEYSSMVRPSLPDASHVFPAGKAIWVTGWGHTQYGGTGALILQKGEIRVINQTTCENLLPQLITPRMMCVGFLSGGVDSCIGDSGGPLSSVEADGRIFQAGVVSWGDGCAQRNKPGVYTRLPLFRDWIKENTGV
B2: MTSP-1 H40R/I41H/F97D/ins97aV/T98P/F99L/C122S/Q175R/Q192G/D217E/K224R (enzyme)
chain: VVGGTDADEGEWPWQVSLHALGQGRHCGASLISPNWLVSAAHCYIDDRGFRYSDPTQWTAFLGLHDQSQRSAPGVQERRLKRIISHPFFNDDVPLDYDIALLELEKPAEYSSMVRPISLPDASHVFPAGKAIWVTGWGHTQYGGTGALILQKGEIRVINQTTCENLLPQRITPRMMCVGFLSGGVDSCGGDSGGPLSSVEADGRIFQAGVVSWGEGCAQRNRPGVYTRLPLFRDWIKENTGV
B3: MTSP-1 Q38G/H40R/I41H/D60bN/F97D/F99L/C122S/Q175L/Q192G (enzyme)
chain: VVGGTDADEGEWPWQVSLHALGGGRHCGASLISPNWLVSAAHCYIDNRGFRYSDPTQWTAFLGLHDQSQRSAPGVQERRLKRIISHPFFNDDTLDYDIALLELEKPAEYSSMVRPISLPDASHVFPAGKAIWVTGWGHTQYGGTGALILQKGEIRVINQTTCENLLPQLITPRMMCVGFLSGGVDSCGGDSGGPLSSVEADGRIFQAGVVSWGDGCAQRNKPGVYTRLPLFRDWIKENTGV
B4: MTSP-1 Q38G/H40R/I41H/D60bK/F60eT/F97D/F99L/C122S/Q175L/Q192G (enzyme)
chain: B3 chain with N47K, F50T
B5: MTSP-1 Q38G/H40R/I41H/D60bN/F60eT/F97D/F99L/C122S/Q175L/Q192G (enzyme)
chain: B3 chain with F50T
B6: MTSP-1 Q38E/H40R/I41H/D60bK/F60eT/F97D/F99L/C122S/Q175L/Q192G (enzyme)
chain: B3 chain with G23E, N47K, F50T
B7: MTSP-1 Q38R/I41S/D60bH/F60eV/ins97aE/F97T/T98G/F99L/C122S/G151N/Q175L/Q192E (enzyme)
chain: VVGGTDADEGEWPWQVSLHALGRGHSCGASLISPNWLVSAAHCYIDHRGVRYSDPTQWTAFLGLHDQSQRSAPGVQERRLKRIISHPFFNDTEGLDYDIALLELEKPAEYSSMVRPISLPDASHVFPAGKAIWVTGWGHTQYGGTNALILQKGEIRVINQTTCENLLPQLITPRMMCVGFLSGGVDSCEGDSGGPLSSVEADGRIFQAGVVSWGDGCAQRNKPGVYTRLPLFRDWIKENTGV
B8: MTSP-1 Q38H/I41A/D60bT/F60eK/Y60gW/ins97aE/F97T/T98G/F99L/C122S/Q175L/Q192D (enzyme)
chain: B7 chain with R23H, S26A, H47T, V50K, Y52W, N146G, E189D
B9: MTSP-1 Q38E/I41S/D60bV/F60eK/ins97aE/F97T/T98G/F99L/C122S/G151N/Q175L/Q192I (enzyme)
chain: B7 chain with R23E, H47V, V50K, E189I
B10: MTSP-1 Q38H/I41A/F60eA/Y60gW/ins97aE/F97T/T98G/F99L/C122S/Q175L/Q192E (enzyme)
chain: B7 chain with R23H, S26A, H47D, V50A, Y52W, N146G
B11: MTSP-1 Q38H/I41S/D60bA/F60eV/Y60gF/F97T/ins97aE/T98G/F99L/C122S/Q175L/Q192T (enzyme)
chain: B7 chain with R23H, H47A, Y52F, N146G, E189T
B12: MTSP-1 Q38W/I41A/ins97aV/F97D/T98P/F99L/C122S/G151T/Q175S/Q192D (enzyme)
chain: B2 chain with Q23W, R25H, H26A, G146T, R170S, G189D, E215D, R222K
B13: MTSP-1 Q38H/I41S/D60bS/F60eR/Y60gW/F97T/ins97aE/T98G/F99L/C122S/Q175L/Q192E (enzyme)
chain: B7 chain with R23H, H47S, V50R, Y52W, N146G
B14: MTSP-1 Q38R/I41S/D60bH/F60eI/ins97aE/F97T/T98G/F99L/C122S/Q175L/Q192E (enzyme)
chain: B7 chain with V50I, N146G
B15: MTSP-1 Q38E/I41S/D60bH/F60eI/F97T/ins97aE/T98G/F99L/C122S/Q175L/Q192V (enzyme)
chain: B7 chain with R23E, V50I, N146G, E189V
B16: MTSP-1 Q38H/I41A/D60bV/F60eR/Y60gW/ins97aE/F97T/T98G/F99L/C122S/G151N/Q175L/Q192D (enzyme)
chain: B7 chain with R23H, S26A, H47V, V50R, Y52W, E189D
B17: MTSP-1 Q38H/I41S/D60bT/F60eS/ins97aV/F97D/T98P/F99L/C122S/G151H/Q175L/Q192E (enzyme)
chain: B7 chain with R23H, H47T, V50S, T92D, E93V, G94P, N146H
B18: MTSP-1 Q38H/I41S/D60bA/F60eV/Y60gF/ins97aE/F97T/T98G/F99L/C122S/G151N/Q175L/Q192T (enzyme)
chain: B7 chain with R23H, H47A, Y52F, E189T
B19: MTSP-1 Q38R/I41T/ins97aE/F97T/T98G/F99L/C122S/G151N/Q175L/Q192G (enzyme)
chain: B7 chain with S26T, H47D, V50F, E189G
B20: MTSP-1 Q38H/I41T/D60bV/F60eQ/F97T/ins97aE/T98G/F99L/C122S/Q175L/Q192G (enzyme)
chain: B7 chain with R23H, S26T, H47V, V50Q, N146G, E189G
B21: MTSP-1 Q38E/I41S/D60bV/F60eK/F97T/ins97aE/T98G/F99L/C122S/Q175L/Q192I (enzyme)
chain: B7 chain with R23E, H47V, V50K, N146G, E189I
B22: MTSP-1 Q38H/I41A/D60bT/F60eH/Y60gW/ins97aE/F97T/T98G/F99L/C122S/Q175L/Q192D (enzyme)
chain: B7 chain with R23H, S26A, H47T, V50H, Y52W, N146G, E189D
B23: MTSP-1 ins97aV/F97D/T98P/F99L/C122S/G151N/Q175L/Q192G (enzyme)
chain: B2 chain with R25H, H26I, G146N, R170L, E215D, R222K
B24: MTSP-1 Q38G/H40R/I41H/D60bH/F60eK/F97T/ins97aE/T98G/F99L/C122S/Q175L/V183A/Q192G (enzyme)
chain: B7 chain with R23G, H25R, S26H, V50K, N146G, V178A, E189G
B25: MTSP-1 Q38S/I41S/F60eR/F97T/ins97aE/T98G/F99L/C122S/G151N/Q175L/Q192S (enzyme)
chain: B7 chain with R23S, H47D, V50R, E189S
B26: MTSP-1 Q38R/I41S/D60bH/F60eI/ins97aE/F97T/T98G/F99L/C122S/G151N/Q175L/Q192E (enzyme)
chain: B7 chain with V50I
B27: MTSP-1 Q38H/I41A/D60bV/F60eT/Y60gW/ins97aE/F97T/T98G/F99L/C122S/Q175L/Q192E (enzyme)
chain: B7 chain with R23H, S26A, H47V, V50T, Y52W, N146G
B28: MTSP-1 Q38H/I41A/D60bV/F60eI/ins97aE/F97T/T98G/F99L/C122S/Q175L/Q192E (enzyme)
chain: B7 chain with R23H, S26A, H47V, V50I, N146G
B29: MTSP-1 Q38H/I41S/D60bT/F60eS/F97D/ins97aV/T98P/F99L/C122S/G151H/Q175L/Q192D (enzyme)
chain: B7 chain with R23H, H47T, V50S, T92D, E93V, G94P, N146H, E189D
B30: MTSP-1 Q38R/I41E/ins97aE/F97T/T98G/F99L/C122S/Q175L/Q192T (enzyme)
chain: B7 chain with S26E, H47D, V50F, N146G, E189T
B31: MTSP-1 Q38H/I41A/F97T/ins97aE/T98G/F99L/C122S/Q175L/Q192G (enzyme)
chain: B7 chain with R23H, S26A, H47D, V50F, N146G, E189G
B32: MTSP-1 Q38V/I41S/D60bT/F60eT/F97D/ins97aV/T98P/F99L/C122S/G151N/Q175H/Q192S (enzyme)
chain: B7 chain with R23V, H47T, V50T, T92D, E93V, G94P, L170H, E189S
B33: MTSP-1 Q38H/I41A/D60bV/F60eR/Y60gW/ins97aE/F97T/T98G/F99L/C122S/Q175L/Q192D (enzyme)
chain: B7 chain with R23H, S26A, H47V, V50R, Y52W, N146G, E189D
B34: MTSP-1 Q38H/I41A/D60bA/F60eR/F97T/ins97aE/T98G/F99L/C122S/Q175L/Q192E (enzyme)
chain: B7 chain with R23H, S26A, H47A, V50R, N146G
B35: MTSP-1 Q38E/I41S/D60bH/F60eI/ins97aE/F97T/T98G/F99L/C122S/G151N/Q175L/Q192V (enzyme)
chain: B7 chain with R23E, V50I, E189V
B36: MTSP-1 F97D/ins97aV/T98P/F99L/C122S/G151N/Q175L/Q192E (enzyme)
chain: B2 chain with R25H, H26I, G146N, R170L, G189E, E215D, R222K
B37: MTSP-1 Q38F/I41S/D60bF/F60eR/Y60gF/F97T/ins97aE/T98G/F99L/C122S/G151N/Q175L/Q192V (enzyme)
chain: B7 chain with R23F, H47F, V50R, Y52F, E189V
B38: MTSP-1 Q38H/I41A/D60bA/F60eR/ins97aE/F97T/T98G/F99L/C122S/G151N/Q175L/Q192E (enzyme)
chain: B7 chain with R23H, S26A, H47A, V50R
B39: MTSP-1 Q38R/I41E/ins97aE/F97T/T98G/F99L/C122S/G151N/Q175L/Q192T (enzyme)
chain: B7 chain with S26E, H47D, V50F, E189T
B40: MTSP-1 Q38H/I41S/D60bT/F60eS/ins97aV/F97D/T98P/F99L/C122S/G151H/Q175A/Q192D (enzyme)
chain: B7 chain with R23H, H47T, V50S, T92D, E93V, G94P, N146H, L170A, E189D
B41: MTSP-1 Q38T/I41S/D60bV/F60eR/ins97aV/F97D/T98P/F99L/C122S/G151N/Q175R/Q192V (enzyme)
chain: B7 chain with R23T, H47V, V50R, T92D, E93V, G94P, L170R, E189V
B42: MTSP-1 Q38L/I41T/D60bR/F60eL/Y60gM/F97T/ins97aE/T98G/F99L/C122S/G151N/Q175L/Q192G (enzyme)
chain: B7 chain with R23L, S26T, H47R, V50L, Y52M, E189G
B43: MTSP-1 Q38H/I41A/D60bE/F60eH/Y60gW/ins97aE/F97T/T98G/F99L/C122S/Q175L/Q192D (enzyme)
chain: B7 chain with R23H, S26A, H47E, V50H, Y52W, N146G, E189D

Residue numbers refer to the chain shown, from its start. Names and notes keep the numbering of the source.

The values below come from patent publication US20240018502A1.

The assay deals with plasma purified human complement protein C3 (human) (UniProt P01024). Nature of the assay: cell-based or functional assay.
Chain of plasma purified human complement protein C3 (human) (P01024 23-667, chain 1 of 2): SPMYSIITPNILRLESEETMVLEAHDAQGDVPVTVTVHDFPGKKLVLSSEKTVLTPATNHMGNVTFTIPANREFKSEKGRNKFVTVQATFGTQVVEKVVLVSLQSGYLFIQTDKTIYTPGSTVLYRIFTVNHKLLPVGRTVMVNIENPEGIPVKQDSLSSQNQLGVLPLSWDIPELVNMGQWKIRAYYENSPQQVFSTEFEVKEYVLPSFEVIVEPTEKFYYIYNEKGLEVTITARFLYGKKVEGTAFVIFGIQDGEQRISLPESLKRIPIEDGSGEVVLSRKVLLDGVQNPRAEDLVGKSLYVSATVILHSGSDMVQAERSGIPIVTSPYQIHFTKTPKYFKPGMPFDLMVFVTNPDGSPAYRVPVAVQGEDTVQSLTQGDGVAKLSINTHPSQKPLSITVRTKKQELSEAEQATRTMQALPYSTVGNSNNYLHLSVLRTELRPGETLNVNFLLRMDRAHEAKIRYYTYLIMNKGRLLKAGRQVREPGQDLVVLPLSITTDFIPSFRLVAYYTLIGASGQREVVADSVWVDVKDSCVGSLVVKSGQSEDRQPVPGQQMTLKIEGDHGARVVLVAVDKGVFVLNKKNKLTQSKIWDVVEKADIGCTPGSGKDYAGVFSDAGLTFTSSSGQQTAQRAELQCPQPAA
Chain of plasma purified human complement protein C3 (human) (P01024 672-1663, chain 2 of 2): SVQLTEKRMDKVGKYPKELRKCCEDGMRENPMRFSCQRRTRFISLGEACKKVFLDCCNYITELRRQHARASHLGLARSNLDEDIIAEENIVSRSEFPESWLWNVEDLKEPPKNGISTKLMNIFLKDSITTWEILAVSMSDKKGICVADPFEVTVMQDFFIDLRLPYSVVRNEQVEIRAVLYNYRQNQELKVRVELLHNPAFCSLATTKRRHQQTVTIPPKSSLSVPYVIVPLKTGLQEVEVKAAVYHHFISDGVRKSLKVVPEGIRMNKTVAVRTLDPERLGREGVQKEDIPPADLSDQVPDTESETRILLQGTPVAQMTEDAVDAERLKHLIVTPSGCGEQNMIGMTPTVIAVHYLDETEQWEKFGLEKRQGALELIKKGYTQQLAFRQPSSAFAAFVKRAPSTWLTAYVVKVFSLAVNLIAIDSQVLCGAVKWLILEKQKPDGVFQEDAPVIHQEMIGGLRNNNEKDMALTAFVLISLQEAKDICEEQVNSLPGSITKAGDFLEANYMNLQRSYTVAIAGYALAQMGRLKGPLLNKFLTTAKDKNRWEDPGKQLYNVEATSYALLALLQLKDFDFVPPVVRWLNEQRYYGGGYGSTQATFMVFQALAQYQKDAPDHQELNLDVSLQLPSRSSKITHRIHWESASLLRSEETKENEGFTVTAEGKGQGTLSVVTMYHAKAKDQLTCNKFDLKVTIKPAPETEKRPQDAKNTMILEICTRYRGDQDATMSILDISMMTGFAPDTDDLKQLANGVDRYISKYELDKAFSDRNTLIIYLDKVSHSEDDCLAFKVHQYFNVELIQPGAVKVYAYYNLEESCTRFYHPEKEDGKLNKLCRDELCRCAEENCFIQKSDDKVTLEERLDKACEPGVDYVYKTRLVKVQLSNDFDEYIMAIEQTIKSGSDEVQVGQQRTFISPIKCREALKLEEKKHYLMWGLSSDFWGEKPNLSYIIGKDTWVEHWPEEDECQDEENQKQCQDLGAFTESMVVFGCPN
B1 came in with an EC50 of hC3 cleavage of 5.95 nM.
The result for B2 reads 65.8 nM; that for B3, 0.867 nM; that for B4, 21.3 nM.
On to B5, for which the EC50 of hC3 cleavage came out at 11.9 nM.
For B6 the value was 16.6 nM; for B7, 22.5 nM; for B8, 3.82 nM.
The molecule B9 showed an EC50 of hC3 cleavage of 19.1 nM.
For B10 the value was 5.93 nM; for B11, 7.46 nM.
The result for B12 reads 68 nM.
For B13 the value was 8.35 nM; for B14, 27.3 nM.
Consider B15, for which the EC50 of hC3 cleavage is 10.4 nM.
For B16 the value was 7.74 nM; for B17, 29.8 nM.
For B18 the value was 14.2 nM.
The result for B19 reads 30.6 nM; that for B20, 4.93 nM; that for B21, 20.4 nM.
With B22, the EC50 of hC3 cleavage worked out at 2.28 nM.
For B23 the value was 38.5 nM; for B24, 27.7 nM.
B25 had an EC50 of hC3 cleavage of 6.26 nM.
Turning to B26, the EC50 of hC3 cleavage is 32.9 nM.
The result for B27 reads 1.39 nM; that for B28, 7.64 nM; that for B29, 45.4 nM.
Regarding B30, the EC50 of hC3 cleavage was 63.3 nM.
For the molecule B31, the EC50 of hC3 cleavage worked out at 3.9 nM.
The result for B32 reads 18.5 nM.
The molecule B33 yielded an EC50 of hC3 cleavage of 2.37 nM.
In the case of B34, the EC50 of hC3 cleavage worked out at 12 nM.
For B35 the value was 11.5 nM; for B36, 194 nM.
For B37 the value was 1.96 nM; for B38, 14.2 nM.
For B39 the value was 105 nM.
In turn, B40 showed an EC50 of hC3 cleavage of 67.8 nM.
Molecule B41 gave an EC50 of hC3 cleavage of 15.7 nM.
For B42, the EC50 of hC3 cleavage was 23.7 nM.
As for B43, the EC50 of hC3 cleavage came to 5.38 nM.
